Reference: patent US20220242968A1 (BIOTHEUS, published 2022)

T1: human CEACAM5 on tumor cells (LOVO, LS174T, KATO3) (human, UniProt P06731 35-685)
T1 construct: whole, on cells; also called LOVO cells; LS174T cells
T1 sequence (looked up): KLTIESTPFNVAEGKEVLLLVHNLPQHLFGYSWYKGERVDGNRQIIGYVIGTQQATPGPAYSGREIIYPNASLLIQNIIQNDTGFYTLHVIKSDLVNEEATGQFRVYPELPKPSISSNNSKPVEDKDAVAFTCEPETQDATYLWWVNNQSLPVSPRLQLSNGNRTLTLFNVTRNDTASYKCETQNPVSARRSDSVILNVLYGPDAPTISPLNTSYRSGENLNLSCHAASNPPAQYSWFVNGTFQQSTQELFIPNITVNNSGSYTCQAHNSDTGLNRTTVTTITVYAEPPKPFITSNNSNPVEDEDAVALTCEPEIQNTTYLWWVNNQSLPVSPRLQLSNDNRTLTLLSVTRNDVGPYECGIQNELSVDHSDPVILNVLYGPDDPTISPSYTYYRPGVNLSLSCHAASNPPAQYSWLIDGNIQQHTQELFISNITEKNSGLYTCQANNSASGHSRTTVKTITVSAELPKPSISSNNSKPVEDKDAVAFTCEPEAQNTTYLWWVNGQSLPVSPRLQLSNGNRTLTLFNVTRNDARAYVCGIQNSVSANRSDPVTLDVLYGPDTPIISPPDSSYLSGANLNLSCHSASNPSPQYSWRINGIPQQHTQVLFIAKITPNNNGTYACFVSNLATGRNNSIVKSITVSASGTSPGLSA

T2: CEACAM8 overexpressed on CHO cells (UniProt P31997 35-320, limits assumed)
T2 construct: whole, on cells; also called CHO-CEACAM8
T2 sequence (looked up): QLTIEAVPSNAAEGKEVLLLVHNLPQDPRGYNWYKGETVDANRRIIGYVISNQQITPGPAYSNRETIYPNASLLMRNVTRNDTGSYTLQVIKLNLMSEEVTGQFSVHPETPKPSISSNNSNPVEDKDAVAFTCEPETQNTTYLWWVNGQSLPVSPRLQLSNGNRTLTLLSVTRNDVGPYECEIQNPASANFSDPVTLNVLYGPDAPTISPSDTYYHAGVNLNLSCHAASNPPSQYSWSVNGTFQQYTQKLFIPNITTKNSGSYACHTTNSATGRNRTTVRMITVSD

T3: CEACAM3 overexpressed on SW620 cells (UniProt P40198 35-252, limits assumed)
T3 construct: whole, on cells; also called SW620-CEACAM3
T3 sequence (looked up): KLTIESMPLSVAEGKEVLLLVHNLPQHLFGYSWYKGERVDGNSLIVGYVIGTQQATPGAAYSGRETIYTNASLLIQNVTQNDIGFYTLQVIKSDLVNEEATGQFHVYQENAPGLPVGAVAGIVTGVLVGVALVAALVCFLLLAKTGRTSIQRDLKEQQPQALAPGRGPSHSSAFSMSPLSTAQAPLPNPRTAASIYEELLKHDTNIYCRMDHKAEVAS

T4: CEACAM7 overexpressed on CHO cells (UniProt Q14002 36-242, limits assumed)
T4 construct: whole, on cells; also called CHO-CEACAM7
T4 sequence (looked up): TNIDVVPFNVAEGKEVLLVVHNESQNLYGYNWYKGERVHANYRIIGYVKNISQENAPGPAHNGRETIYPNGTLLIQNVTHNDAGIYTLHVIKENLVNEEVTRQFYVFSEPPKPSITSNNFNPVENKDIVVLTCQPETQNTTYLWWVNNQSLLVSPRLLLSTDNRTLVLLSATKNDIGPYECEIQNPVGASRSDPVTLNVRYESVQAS

T5: CEACAM1 overexpressed on SW620 cells (UniProt P13688 35-526, limits assumed)
T5 construct: whole, on cells; also called SW620-CEACAM1
T5 sequence (looked up): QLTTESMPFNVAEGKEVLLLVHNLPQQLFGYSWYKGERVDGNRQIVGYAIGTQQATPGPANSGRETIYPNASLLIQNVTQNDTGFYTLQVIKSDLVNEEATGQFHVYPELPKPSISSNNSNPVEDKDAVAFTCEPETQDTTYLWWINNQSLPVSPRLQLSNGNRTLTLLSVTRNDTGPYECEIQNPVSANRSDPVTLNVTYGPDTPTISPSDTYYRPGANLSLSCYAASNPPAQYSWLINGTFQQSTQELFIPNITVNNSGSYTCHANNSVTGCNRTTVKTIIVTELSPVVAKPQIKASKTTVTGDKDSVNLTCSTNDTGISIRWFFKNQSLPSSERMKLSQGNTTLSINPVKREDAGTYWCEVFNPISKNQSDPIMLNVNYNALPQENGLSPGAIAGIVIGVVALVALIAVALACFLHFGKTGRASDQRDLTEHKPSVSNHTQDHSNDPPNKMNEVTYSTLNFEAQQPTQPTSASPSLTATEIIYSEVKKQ

T6: human CEACAM5 protein (human, UniProt P06731 35-685, limits assumed)
T6 construct: also called CD66e
T6 sequence (looked up): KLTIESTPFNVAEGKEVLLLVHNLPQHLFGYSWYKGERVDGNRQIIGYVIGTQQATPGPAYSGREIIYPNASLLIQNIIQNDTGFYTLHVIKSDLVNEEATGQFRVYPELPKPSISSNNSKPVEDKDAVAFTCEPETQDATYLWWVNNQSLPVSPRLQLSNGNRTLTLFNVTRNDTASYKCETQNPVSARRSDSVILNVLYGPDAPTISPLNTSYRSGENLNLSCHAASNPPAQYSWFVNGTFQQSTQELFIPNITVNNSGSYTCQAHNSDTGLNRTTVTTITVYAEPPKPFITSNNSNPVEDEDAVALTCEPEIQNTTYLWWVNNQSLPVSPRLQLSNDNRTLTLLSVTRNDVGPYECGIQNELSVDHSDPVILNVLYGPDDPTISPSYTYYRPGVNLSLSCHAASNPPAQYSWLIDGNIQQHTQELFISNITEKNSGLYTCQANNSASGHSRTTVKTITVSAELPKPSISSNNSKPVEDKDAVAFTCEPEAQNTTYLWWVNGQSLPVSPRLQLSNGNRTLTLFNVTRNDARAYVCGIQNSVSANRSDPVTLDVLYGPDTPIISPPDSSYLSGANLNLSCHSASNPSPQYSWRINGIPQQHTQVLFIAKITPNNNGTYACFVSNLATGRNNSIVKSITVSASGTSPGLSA


Assays:
[1] = target: T1, human CEACAM5 on tumor cells (LOVO, …); experiment: FACS on LS174T cells
Procedure: LS174T cells (tumor cells with high expression of CEACAM5) were cultured in RPMI1640 medium containing 10% FBS. After digesting LS174T cells with TrypLE trypsin, the cells were centrifuged and resuspended in DPBS solution (FACS buffer, 4° C.) containing 2% BSA; then, the cells were added at 5×10⁵/100 μL/well to the U-shaped bottom 96-well plate, and a series of dilution solutions of antibody were added to the U-shaped bottom 96-well plate, mixture was incubated at 4° C. for 1 hour. After incubation, the mixture was centrifuged and the resulted supernatant was discarded; 100 μl of secondary antibody (anti-human IgG Fc-APC) was added to each well, and incubated at 4° C. for 1 hour. After incubation, the cells were washed once with FACS buffer, resuspended in 200 μl FACS buffer, and the fluorescence signal value was read in BD C6 plus.
The 47th amino acid (Cys) of the human-mouse chimeric antibody UM05-5L VH was mutated to Trp, and the mutated antibody was named UM05-5L C47W; the 47th amino acid (Trp) of the humanized antibody hUM05-3 VH was mutated to Cys, and the mutated antibody was named hUM05-3 W47C. As described in Example 10, the ability of the antibody binding to LS174T cells was tested.

[2] = target: T2, CEACAM8 overexpressed on CHO cells; experiment: FACS on CHO-CEACAM8 cells
Procedure: (§1) Flow cytometry (FACS) was used to detect the binding of antibody to LOVO tumor cells naturally expressing human CEACAM5 or cells overexpressing different CEACAM family members. In short, cells were first collected, washed with PBS, counted, and diluted to obtain 2*10⁶/ml cell suspension; 10 μl of an antibody working solution was added to 100 μl of the cell suspension, and incubated at 4° C. for 30 min in the dark; after washing twice with PBS, a corresponding fluorescent-labeled secondary antibody Goat-anti-Human IgG (H+L) (Invitrogen) was added, incubated at 4° C. for 30 min in the dark, after washing twice with PBS, it was suspended in 400 μl of FACS buffer, and the binding profile of the antibody to the cells were detected by FACS.
(§2) The binding profile of the supernatants of the chimeric antibody UM05-5L and the control antibody UM05-8 (anti-CEACAM5 antibody, prepared by the hybridoma method in our laboratory) to different cells at a concentration of 3 μg/mL were detected, in which SW620-CEACAM1 was a cell overexpressing CEACAM1, SW620-CEACAM3 was a cell overexpressing CEACAM3, CHO-CEACAM6 was a cell overexpressing CEACAM6, CHO-CEACAM7 was a cell overexpressing CEACAM7, and CHO-CEACAM8 was a cell overexpressing CEACAM8. […]

[3] = target: T3, CEACAM3 overexpressed on SW620 cells; experiment: FACS on SW620-CEACAM3 cells
Procedure: as §1, §2

[4] = target: T1, human CEACAM5 on tumor cells (LOVO, …); experiment: cell-based or functional assay
[5] = target: T1, human CEACAM5 on tumor cells (LOVO, …); experiment: FACS on LOVO tumor cells naturally expressing human CEACAM5
Procedure: as §1
Furthermore, we used FACS to detect the EC50 of the chimeric antibody UM05-5L binding to LOVO tumor cells that naturally expressed human CEACAM5. […] Based on the above results, the chimeric antibody UM05-5L had excellent binding affinity, specificity and selectivity to CEACAM5.

[6] = target: T4, CEACAM7 overexpressed on CHO cells; experiment: FACS on CHO-CEACAM7 cells
Procedure: as §1, §2

[7] = target: T5, CEACAM1 overexpressed on SW620 cells; experiment: FACS on SW620-CEACAM1 cells
Procedure: as §1, §2

human CEACAM5 protein = target: T6, human CEACAM5 protein; experiment: ELISA, plate coated with human CEACAM5 protein at 1 µg/mL
Procedure: On the next day, it was first washed with 300 μL of PBST (Tween20: 0.5% o) for 3 times, then blocked with 100 μL/well of 5% BSA/PBS for 1 hour, and shaken at room temperature. Washing was performed 3 times with 300 μL of PBST. A series of dilution solutions of antibody samples were prepared with PBS, and added at 100 μL/well to the 96-well plate and shaken at room temperature for 1 hour. Washing was performed 3 times with 300 μL of PBST. A secondary antibody goat anti-human IgG HRP solution was prepared, added at 100 μL/well to the 96-well plate, and shaken at room temperature for 30 minutes. Washing was performed 4 times with 300 μL of PBST. 100 μL/well TMB was added to perform color development for 20 min. 100 μL/well of 0.6N H₂SO₄ was added to stop the color development, and OD450nm was detected.

| EC50 [1] [µg/mL] | Emax MFI (Average fluorescence intensity) [1] [MFI] | binding result [2] | binding result [3] | ADCC activity (luciferase in Jurkat/ADC effector cells, LOVO target cells), EC50 [4] [µg/mL] | EC50 [5] [µg/mL] | binding result [6] | binding result [7] | EC50 (human CEACAM5 protein) [µg/mL] | Binder |
| --- | --- | --- | --- | --- | --- | --- | --- | --- | --- |
| 0.53 | 52900 |  |  |  |  |  |  |  | humanized antibody hUM05-3 (antibody, V domains shown, detected with anti-human IgG Fc-APC) VH: EVQLVQSGAEVKKPGATVKISCKVSGYTFTDHTMHWMQQAPGQGLEWIGLIYPRDGSTIYNEKFQGRATLTADRSTDTAYMELSSLRSEDTAVYFCARPIYDGYSFDYWGQGTLVTVSS VL: QIVLTQSPATLSASPGERATLSCRASSSVSYMHWYQQKPGQAPKRWIYDTSNRATGVPARFSGSGSGTDYTLTISSMEPEDAAVYYCQQWTRNPPTFGQGTKLELK |
| 1.47 | 34400 |  |  |  |  |  |  |  | hUM05-3 W47C (antibody, V domains shown, also called mutated humanized antibody hUM05-3 (VH Trp47 to Cys)) VH: EVQLVQSGAEVKKPGATVKISCKVSGYTFTDHTMHWMQQAPGQGLECIGLIYPRDGSTIYNEKFQGRATLTADRSTDTAYMELSSLRSEDTAVYFCARPIYDGYSFDYWGQGTLVTVSS VL: QIVLTQSPATLSASPGERATLSCRASSSVSYMHWYQQKPGQAPKRWIYDTSNRATGVPARFSGSGSGTDYTLTISSMEPEDAAVYYCQQWTRNPPTFGQGTKLELK |
| 0.81 | 79700 | no binding (tested: 3 µg/mL) | no binding (tested: 3 µg/mL) | 0.85 | 3.17 | no binding (tested: 3 µg/mL) | no binding (tested: 3 µg/mL) | 0.105 | human-mouse chimeric antibody UM05-5L (antibody, human IgG1, kappa, V domains shown, expressed in HEK293) VH: QVQLQQSDADLVKPGASVKISCKVSGYTFTDHTIHWMKQRPEQGLECIGYIYPRDGNTKYNEKFKGKATLTADRSSITAYMQLNSLTSEDSAVYFCARPIYDGYSFDYWGQGTTLTVSS VL: QIVLTQSPAIMSASPGEKVTMTCRASSSVSYMHWYQQKSGTSPKRWIYDTSKLASGVPARFSGSGSGTSYSLTISSMAAEDAATYYCQQWTRNPPTFGAGTKLELKR |
| 2.46 | 55200 |  |  |  |  |  |  |  | UM05-5L C47W (antibody, human IgG1, kappa, V domains shown, also called mutated human-mouse chimeric antibody UM05-5L (VH Cys47 to Trp)) VH: QVQLQQSDADLVKPGASVKISCKVSGYTFTDHTIHWMKQRPEQGLEWIGYIYPRDGNTKYNEKFKGKATLTADRSSITAYMQLNSLTSEDSAVYFCARPIYDGYSFDYWGQGTTLTVSS VL: QIVLTQSPAIMSASPGEKVTMTCRASSSVSYMHWYQQKSGTSPKRWIYDTSKLASGVPARFSGSGSGTSYSLTISSMAAEDAATYYCQQWTRNPPTFGAGTKLELKR |
